Source: paper PMC8473191

Experiments:
[1] = target: mMH1_02TE, H1 hemagglutinin ectodomain (A/Hawaii/70/2019) with cleavable foldon and histidine tag (influenza A virus A/Hawaii/70/2019 (H1) | not stated); assay: SEC-MALS
[2] = target: mMH3_02TE, H3 hemagglutinin ectodomain (A/Hong Kong/45/2019) with cleavable foldon and histidine tag (influenza A virus A/Hong Kong/45/2019 (H3) | not stated); assay: SEC-MALS

“mMH1_02TE, H1 hemagglutinin ectodomain (A/Hawaii/70/2019) with cleavable foldon and histidine tag (domain or fragment)” showed a stoichiometry N [1] of 3.
In the case of “mMH3_02TE, H3 hemagglutinin ectodomain (A/Hong Kong/45/2019) with cleavable foldon and histidine tag (domain or fragment)”, the stoichiometry N [2] is reported as 3.
